To fix the notation:
B1: Kinase D-interacting substrate of 220 kDa (Rattus norvegicus (Rat)), Q9EQG6 (parent)
chain: MSVLISQSVINYVEEENIPALKALLEKCKDVDERNECGQTPLMLAAEQGNVEIVKELLKNGANCNLEDLDNWTALISASKEGHIHIVEELLKSGASLEHRDMGGWTALMWACYKGRTDVVELLLSHGANPSVTGLYSVYPIIWAAGRGHADIVHLLLQNGAKVNCSDKYGTTPLVWAARKGHLECVKHLLAMGADVDQEGANSMTALIVAVKGGYTQSVKEILKRNPNVNLTDKDGNTALMIASKEGHIEIVQDLLDAGTYVNIPDRSGDTVLIGAVRGGHVEIVRALLQKYADIDIRGQDNKTALYWAVEKGNATMVRDILQCNPDTEICTKDGETPLIKATKMRNIEVVELLLDKGAKVSAVDKKGDTPLHVAIRGRSRRLAELLLRNPKDGRLLYRPNKAGETPYNIDCSHQKSILTQIFGARHLSPTETDGDMLGYDLYSSALADILSEPTMQPPICVGLYAQWGSGKSFLLKKLEDEMKTFAGQQTEPLFQFSWLIVFLTLLLCGGLGLVFAFTVDTNLAIAISLSFLALIYIFFIVIYFGGRREGESWNWAWALSTRLARHIGYLELLFKLMFVNPPELPEQTTKALPVRFLFTDYNRLSSVGGETSLAEMIATLSDACEREFGFLATRLFRVFRTEESQGKKKWKKTCCLPSFVIFLFIVGCIIAGITLLAIFRVDPKHLTVNAILISIASVVGLAFVLNCRTWWQVLDSLLNSQRKRLHSAASKLHKLKSEGFMKVLKCEVELMARMAKTIDSFTQNQTRLVVIIDGLDACEQDKVLQMLDTVRVLFSKGPFIAIFASDPHIIIKAINQNLNSVLRDSNINGHDYMRNIVHLPVFLNSRGLSNARKFLVTSATNGDITCSDTTGTQEDTDRRVSQNSLGEMTKLGSKTALNRRDTYRRRQMQRTITRQMSFDLTKLLVTEDWFSDISPQTMRRLLNIVSVTGRLLRANQITFNWDRLASWINLTEQWPYRTSWLILYLEETEGLPDQMTLKTIYERISKNIPTTKDVEPLLEIDGDIRNFEVFLSSRTPVLVARDVKTFLPCTVNLDPKLREIIADVRAAREQINIGGLAYPPLPLHEGPPRPPSGYSQPASVCSSASFNGPFPGGVVSPQPHSSYYSGLSGPQHPFYNRPFFAPYLYTPRYYPGGSQHLISRSSVKTSLPRDQNNGLPCDSGFNKQRQAAVPATGSSLLLSSMTVDVVCEKLRQIEGLDQSMMPQYCTTIKKANINGRVLSQCNIDELKKEMAMNFGDWHLFRSMVLEMRSVESQVVPEDPRFLNENSSAPVPHGESARRSSHTELPLTELSSQTPYTLNFSFEELNTLGLDEGAPRHSNLSWQSQTRRTPSLSSLNSQDSSIEISKLTDKVQAEYRDAYREYIAQMSQLEGGTGSSTISGRSSPHSTYYIGQSSSGGSIHSTLEQERGKEGELKQEDGRKSFLMKRGDVIDYSSSGVSTNEASPLDPITEEDEKSDQSGSKLLPGKKSSERPSLFQTDLKLKGGGLRYQKLPSDEDESGTEESDNTPLLKDDKDKKAEGKAERVCKSPEHSAEPIRTFIKAKEYLSDALLDKKDSSDSGVRSNESSPNHSLHNEAADDSQLEKANLIELEDEGHSGKRGMPHSLSGLQDPIIARMSICSEDKKSPSECSLIASSPEESWPACQKAYNLNRTPSTVTLNNNTAPTNRANQNFDEIEGIRETSQVILRPGPSPNPTAVQNENLKSMAHKRSQRSSYTRLSKDASELHAASSESTGFGEERESIL
B2: Crk-like protein (Rattus norvegicus (Rat)), Q5U2U2 (parent)
chain: MSSARFDSSDRSAWYMGPVSRQEAQTRLQGQRHGMFLVRDSSTCPGDYVLSVSENSRVSHYIINSLPNRRFKIGDQEFDHLPALLEFYKIHYLDTTTLIEPAPRYPNPPMGSVSAPNLSTAEENLEYVRTLYDFPGNDAEDLPFKKGELLVIIEKPEEQWWSARNKDGRVGMIPVPYVEKLVRSSPHGKHGNRNSNSYGIPEPAHAYAQPQTTTPLPTVASTPGAAINPLPSTQNGPVFAKAIQKRVPCAYDKTALALEVGDIVKVTRMNINGQWEGEVNGRKGLFPFTHVKIFDPQNPDDNE

Results on two variants are retold here after IntAct's records for PubMed 16284401.

The variants in the first assay derive from B1. As to conditions: with crkl_human CRKL.
Take Y1095F: the “effect of a mutation on the interaction” value was “decreasing interaction”.

A further assay covers variants of B1. As to conditions: with crkl_rat Crkl, Q5U2U2.
Turning to Y1095F, the “effect of a mutation on the interaction” value is “decreasing interaction”.

Another assay covers variants of B2. As to conditions: with kdis_rat Kidins220, Q9EQG6.
Regarding R39N, the “effect of a mutation on the interaction” value is given as “decreasing interaction”.
